The target of assay [1] is T1, recombinant mouse PlGF-2 (mouse, UniProt P49764 24-158, limits assumed).
T1 sequence (looked up): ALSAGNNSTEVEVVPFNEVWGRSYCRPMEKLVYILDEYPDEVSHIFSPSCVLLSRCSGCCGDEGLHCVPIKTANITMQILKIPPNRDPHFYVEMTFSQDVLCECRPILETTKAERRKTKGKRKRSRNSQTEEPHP
The experiment in a line: competition ELISA on mPlGF-coated plate; blocked ligand: biotinylated NRP-2. On the procedure:
The ability of the anti-PlGF Mabs C9.V2 and 7A10 to block the interaction between PlGF and its co-receptors NRP-1 and NRP-2 (Gluzman-Poltorak et al., 2000; Mamluk et al., 2002) was also tested. For PlGF/NRP1 and PlGF/NRP2 competition binding assays, Microtiter plates (Nunc, Rochester, N.Y., USA) were coated with recombinant mouse PlGF (BioVision, Mountain View, Calif., USA) either at 2 μg/mL (for PlGF/NRP1 binding) or at 4 ug/mL (for PlGF/NRP2 binding) in PBS. After an overnight incubation at 4° C., assay plates were washed with wash buffer (PBS/0.05% Tween 20) and treated with block buffer (PBS/0.5% BSA) for 1 to 2 hours. Samples were serially diluted in sample diluent (PBS/0.5% BSA/15 ppm Proclin/0.05% Tween 20/0.2% BGG/0.25% CHAPS/5 mM EDTA/0.3 M NaCl, pH7.4) containing 0.25 ug/mL of heparin (Sigma, St. Louis, Mo., US) and incubated in the presence of either 100 ng/mL of biotin-mouse
NRP1-Fc (0.66 nM for PlGF/NRP1 binding) or 425 ng/mL of biotin-NRP2-Fc (6 nM for PlGF/NRP2-binding). After incubation for 2 hours, assay plates were washed 6 times with wash buffer and then incubated for 45 to 60 minutes with AMDEX streptavidin-HRP (GE Healthcare, Pittsburgh, Pa., USA) diluted 10,000 folds in assay buffer (PBS/0.5% BSA/0.05% Tween 20, pH7.4). […] Absorbance was measured at 450 nm against a reference wavelength of 620 nm.
Background: An ELISA detects its analyte on a solid surface through an enzyme-linked reagent.

Assay [2] addresses T1, recombinant mouse PlGF-2. In words: cell-based or functional assay.
Assay [3] has as its target T1, recombinant mouse PlGF-2. In words: Biacore, anti-mouse Fc chip.
The next assay concerns the target T2, human PlGF-2 (human, UniProt P49763-3 19-170).
T2 construct: Panning used human PlGF residues 19-116 and human PlGF-1; also called hPlGF-2; hPlGF
T2 sequence (looked up): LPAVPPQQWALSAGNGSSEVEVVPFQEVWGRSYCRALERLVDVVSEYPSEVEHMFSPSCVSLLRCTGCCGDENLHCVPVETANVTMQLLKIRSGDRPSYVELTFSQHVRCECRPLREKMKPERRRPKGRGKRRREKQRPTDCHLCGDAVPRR
The experiment in a line: Biacore, anti-mouse Fc chip.

As a reminder, the Kd is a measure of binding affinity in units of concentration.

“mFLT1(1-3)-IgG (from UniProt P35969) (Fc fusion)”: the IC50 (read off the curve) in the assay with recombinant mouse PlGF-2 [1] is 4000 pM.

B1: anti-PlGF monoclonal antibody C9.V2 (antibody, mouse IgG2a, V domains shown)
VH: EVQLVESGGGLVQPGGSLRLSCAASGFTFTNTWISWVRQAPGKGLEWVGSITPANGYTNYADSVKGRFTISADTSKNTAYLQMNSLRAEDTAVYYCARAVYPWFFAYWGQGTLVTVSS
VL: DIQMTQSPSSLSASVGDRVTITCRASQYVSHAVAWYQQKPGKAPKLLIYSASFLYSGVPSRFSGSGSGTDFTLTISSLQPEDFATYYCQSAYTPPTTFGQGTKVEIK
notes: also called C9v2.9; anti-PlGF MAb C9v2
Regarding B1, the “calculated IC50 (PlGF-induced migration of 67NR-VEGFR-1 cells, FIG. 2)” value with recombinant mouse PlGF-2 [2] was 800 pM. Further, the Kd with recombinant mouse PlGF-2 [3] turned out to be 900 pM; with human PlGF-2 it was 800 pM. The “IC50 (read off the curve)” value with recombinant mouse PlGF-2 [1] is ~4000 pM.

Values taken from patent publication US20110171231A1 (published 2011).
